B1: human AMCase C-terminally truncated, lacking the chitin binding domain (enzyme)
chain: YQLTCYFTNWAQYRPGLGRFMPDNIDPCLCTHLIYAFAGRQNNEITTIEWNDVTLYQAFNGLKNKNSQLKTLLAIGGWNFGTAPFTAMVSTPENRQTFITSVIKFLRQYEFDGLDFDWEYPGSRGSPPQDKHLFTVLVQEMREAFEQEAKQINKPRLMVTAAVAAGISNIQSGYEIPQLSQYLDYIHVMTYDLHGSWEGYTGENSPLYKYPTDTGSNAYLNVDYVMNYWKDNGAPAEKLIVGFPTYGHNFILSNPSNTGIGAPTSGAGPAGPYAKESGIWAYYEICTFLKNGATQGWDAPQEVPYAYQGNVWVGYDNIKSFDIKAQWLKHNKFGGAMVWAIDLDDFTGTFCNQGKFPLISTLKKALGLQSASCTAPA
notes: Biotin labeled in the galectin ELISA; also called hAMCase TR
B2: human galectin-4 (other, UniProt P56470 1-323, looked up)
chain: MAYVPAPGYQPTYNPTLPYYQPIPGGLNVGMSVYIQGVASEHMKRFFVNFVVGQDPGSDVAFHFNPRFDGWDKVVFNTLQGGKWGSEERKRSMPFKKGAAFELVFIVLAEHYKVVVNGNPFYEYGHRLPLQMVTHLQVDGDLQLQSINFIGGQPLRPQGPPMMPPYPGPGHCHQQLNSLPTMEGPPTFNPPVPYFGRLQGGLTARRTIIIKGYVPPTGKSFAINFKVGSSGDIALHINPRMGNGTVVRNSLLNGSWGSEEKKITHNPFGPGQFFDLSIRCGLDRFKVYANGQHLFDFAHRLSAFQRVDTLEIQGDVTLSYVQI
notes: also called gal-4
B7: human acidic mammalian chitinase (AMCase), full length (enzyme)
chain: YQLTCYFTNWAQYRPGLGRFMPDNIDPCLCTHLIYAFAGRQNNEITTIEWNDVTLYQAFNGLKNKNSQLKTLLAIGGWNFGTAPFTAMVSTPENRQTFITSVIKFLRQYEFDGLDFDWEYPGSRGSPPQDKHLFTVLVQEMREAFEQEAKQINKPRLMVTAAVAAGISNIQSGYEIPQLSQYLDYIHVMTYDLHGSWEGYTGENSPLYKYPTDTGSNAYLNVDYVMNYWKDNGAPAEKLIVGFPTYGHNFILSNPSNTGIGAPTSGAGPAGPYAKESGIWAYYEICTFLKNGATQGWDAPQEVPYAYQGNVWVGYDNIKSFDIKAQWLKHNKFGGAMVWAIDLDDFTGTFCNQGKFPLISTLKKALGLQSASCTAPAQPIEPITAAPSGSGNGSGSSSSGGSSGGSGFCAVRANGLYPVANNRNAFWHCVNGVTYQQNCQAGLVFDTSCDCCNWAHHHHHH
notes: Recombinant from HEK293; non-tagged versions also made; Biotin labeled in the galectin ELISA; also called hAMCase; human AMCase

What was measured:
human galectin-4 = target: B2; assay: ELISA: galectin immobilised on the plate, serial dilutions of biotin-labelled AMCase, streptavidin-HRP, TMB, A450
Method: (§1) C/CLP-Galectin Interaction ELISA: Galectin is immobilized on a microtiter plate in DPBS over night at 2-8° C. The plates are then washed with DPBS, 0.1% Tween 20 and blocked for 1 hour at room temperature. Serial dilutions of biotin labeled AMCase are added to each well and incubated for ˜1 hour at room temperature followed by HRP labeled streptavidin. Horseradish peroxydase activity is detected with TMB substrate (KPL, MD) and the reaction is quenched with 1% H2SO4. The absorbance is read at 450 nm.

[1] = target: B7; assay: as above
Method: as §1

[2] = target: T1, mouse AMCase truncated form lacking the C-terminal chitin binding domain (mouse, UniProt Q91XA9 22-398, limits assumed); assay: ELISA
T1 construct: also called mAMCase TR
T1 sequence (Q91XA9 22-398 limits assumed): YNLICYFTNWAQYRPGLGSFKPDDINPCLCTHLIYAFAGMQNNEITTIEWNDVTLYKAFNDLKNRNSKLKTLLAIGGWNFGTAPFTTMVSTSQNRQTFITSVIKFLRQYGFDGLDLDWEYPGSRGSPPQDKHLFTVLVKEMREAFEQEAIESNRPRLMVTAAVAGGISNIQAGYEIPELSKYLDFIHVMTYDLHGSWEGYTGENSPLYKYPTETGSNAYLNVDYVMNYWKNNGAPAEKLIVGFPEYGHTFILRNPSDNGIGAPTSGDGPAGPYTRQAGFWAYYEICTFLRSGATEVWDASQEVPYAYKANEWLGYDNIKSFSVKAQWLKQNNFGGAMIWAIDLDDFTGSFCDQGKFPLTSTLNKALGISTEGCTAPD

mouse chitotriosidase = target: T2, mouse chitotriosidase (mouse, UniProt Q9D7Q1 22-464); assay: ELISA
T2 construct: Recombinant from HEK293; non-tagged versions also made; also called mChT; mouse ChT
T2 sequence (Q9D7Q1 other isoform, or with tags, fused parts or gaps limits assumed): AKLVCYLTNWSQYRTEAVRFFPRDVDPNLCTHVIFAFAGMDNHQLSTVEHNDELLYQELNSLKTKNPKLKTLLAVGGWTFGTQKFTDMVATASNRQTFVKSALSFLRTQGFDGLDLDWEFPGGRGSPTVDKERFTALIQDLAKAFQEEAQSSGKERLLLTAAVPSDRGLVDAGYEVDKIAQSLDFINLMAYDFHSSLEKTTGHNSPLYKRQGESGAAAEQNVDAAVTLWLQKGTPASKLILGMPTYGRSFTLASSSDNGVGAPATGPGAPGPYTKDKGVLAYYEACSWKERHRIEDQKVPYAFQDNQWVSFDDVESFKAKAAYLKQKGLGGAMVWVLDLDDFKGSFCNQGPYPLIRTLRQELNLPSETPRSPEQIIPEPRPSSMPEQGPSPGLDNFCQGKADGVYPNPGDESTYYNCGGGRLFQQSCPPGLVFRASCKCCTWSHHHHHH

mouse YKL-40/BRP-39 = target: T3, mouse YKL-40/BRP-39 (mouse, UniProt Q61362 30-389); assay: ELISA
T3 construct: Recombinant from HEK293; non-tagged versions also made; also called mYKL40/BRP39; mYKL-40
T3 sequence (Q61362 other isoform, or with tags, fused parts or gaps limits assumed): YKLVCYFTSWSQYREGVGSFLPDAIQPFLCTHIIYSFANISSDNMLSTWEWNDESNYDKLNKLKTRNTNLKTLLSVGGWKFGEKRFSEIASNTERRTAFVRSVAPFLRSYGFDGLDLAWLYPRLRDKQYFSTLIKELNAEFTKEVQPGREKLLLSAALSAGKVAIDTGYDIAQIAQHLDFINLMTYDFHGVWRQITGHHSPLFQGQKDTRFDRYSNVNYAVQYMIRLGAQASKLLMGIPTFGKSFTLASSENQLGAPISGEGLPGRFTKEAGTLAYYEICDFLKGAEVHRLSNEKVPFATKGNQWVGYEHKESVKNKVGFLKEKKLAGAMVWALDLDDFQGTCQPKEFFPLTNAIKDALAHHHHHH

[3] = target: B7; assay: ELISA
[4] = target: B1; assay: ELISA
human chitotriosidase = target: T4, human chitotriosidase (human, UniProt Q13231 22-466); assay: ELISA
T4 construct: Recombinant from HEK293; non-tagged versions also made; also called hChT; ChT
T4 sequence (Q13231 other isoform, or with tags, fused parts or gaps limits assumed): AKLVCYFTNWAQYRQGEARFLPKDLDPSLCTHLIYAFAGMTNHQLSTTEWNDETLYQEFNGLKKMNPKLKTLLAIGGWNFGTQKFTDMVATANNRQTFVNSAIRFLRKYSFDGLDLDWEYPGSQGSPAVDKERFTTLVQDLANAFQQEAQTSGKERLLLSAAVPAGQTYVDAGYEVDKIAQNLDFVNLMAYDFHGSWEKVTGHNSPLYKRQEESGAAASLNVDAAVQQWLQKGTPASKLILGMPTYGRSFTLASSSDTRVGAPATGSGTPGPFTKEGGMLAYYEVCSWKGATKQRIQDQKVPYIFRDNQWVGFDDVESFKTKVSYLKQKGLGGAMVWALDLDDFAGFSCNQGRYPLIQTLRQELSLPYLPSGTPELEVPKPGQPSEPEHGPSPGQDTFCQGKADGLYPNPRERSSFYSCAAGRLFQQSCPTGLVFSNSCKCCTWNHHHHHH

human YKL-39 = target: T5, human YKL-39 (human, UniProt Q15782 27-390); assay: ELISA
T5 construct: Recombinant from HEK293; non-tagged versions also made; also called hYKL-39; chondrocyte protein 39
T5 sequence: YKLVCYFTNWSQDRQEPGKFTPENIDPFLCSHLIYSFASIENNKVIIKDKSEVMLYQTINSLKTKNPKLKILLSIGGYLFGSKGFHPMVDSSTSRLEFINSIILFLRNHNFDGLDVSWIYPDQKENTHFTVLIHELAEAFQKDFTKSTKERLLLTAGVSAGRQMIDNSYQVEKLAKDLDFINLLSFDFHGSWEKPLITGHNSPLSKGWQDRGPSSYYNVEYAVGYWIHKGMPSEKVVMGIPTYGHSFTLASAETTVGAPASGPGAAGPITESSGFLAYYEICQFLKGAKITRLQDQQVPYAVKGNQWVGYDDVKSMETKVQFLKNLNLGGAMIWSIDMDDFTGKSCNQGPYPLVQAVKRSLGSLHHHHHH

human YKL-40 = target: T6, human YKL-40 (human, UniProt P36222 22-383); assay: ELISA
T6 construct: Recombinant from HEK293; non-tagged versions also made; also called hYKL-40; chitinase 3-like 1
T6 sequence (P36222 other isoform, or with tags, fused parts or gaps limits assumed): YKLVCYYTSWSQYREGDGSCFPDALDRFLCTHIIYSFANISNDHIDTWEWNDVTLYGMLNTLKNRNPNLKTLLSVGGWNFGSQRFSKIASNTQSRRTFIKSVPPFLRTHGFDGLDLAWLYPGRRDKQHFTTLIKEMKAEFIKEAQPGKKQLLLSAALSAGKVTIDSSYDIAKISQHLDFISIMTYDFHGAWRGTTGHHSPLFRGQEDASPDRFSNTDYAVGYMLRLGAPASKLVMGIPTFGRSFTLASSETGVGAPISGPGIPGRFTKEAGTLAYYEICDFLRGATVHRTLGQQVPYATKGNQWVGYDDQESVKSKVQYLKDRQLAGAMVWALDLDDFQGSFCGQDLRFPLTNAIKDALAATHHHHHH

[5] = target: T7, mouse acidic mammalian chitinase (AMCase), full length (mouse, UniProt Q91XA9 22-473); assay: ELISA; +++ = 2.50 to 3.99 OD at 62.5 ng/ml
T7 construct: Recombinant, secreted from HEK293 cells and purified by its His tag; Biotin labeled in the galectin ELISA; also called mAMCase; mouse AMCase
T7 sequence (Q91XA9 other isoform, or with tags, fused parts or gaps limits assumed): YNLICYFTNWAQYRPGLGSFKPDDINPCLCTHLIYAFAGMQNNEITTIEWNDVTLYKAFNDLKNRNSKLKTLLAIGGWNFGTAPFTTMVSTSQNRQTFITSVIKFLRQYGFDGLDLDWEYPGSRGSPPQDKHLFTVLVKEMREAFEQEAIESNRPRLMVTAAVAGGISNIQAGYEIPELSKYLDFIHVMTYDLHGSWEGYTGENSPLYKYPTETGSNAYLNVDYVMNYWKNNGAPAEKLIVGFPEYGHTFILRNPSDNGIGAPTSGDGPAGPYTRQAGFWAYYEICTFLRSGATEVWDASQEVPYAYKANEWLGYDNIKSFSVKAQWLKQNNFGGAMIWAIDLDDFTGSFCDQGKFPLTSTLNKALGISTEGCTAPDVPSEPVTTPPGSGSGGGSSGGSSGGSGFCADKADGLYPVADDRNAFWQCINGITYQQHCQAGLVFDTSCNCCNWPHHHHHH

mouse AMCase D136A = target: T8, mouse AMCase D136A (mouse, UniProt Q91XA9 22-473); assay: ELISA; +++ = 2.50 to 3.99 OD at 62.5 ng/ml
T8 construct: Full length point mutant without chitinase activity; also called mAMCase D136A
T8 sequence (Q91XA9 22-473 D136A limits assumed): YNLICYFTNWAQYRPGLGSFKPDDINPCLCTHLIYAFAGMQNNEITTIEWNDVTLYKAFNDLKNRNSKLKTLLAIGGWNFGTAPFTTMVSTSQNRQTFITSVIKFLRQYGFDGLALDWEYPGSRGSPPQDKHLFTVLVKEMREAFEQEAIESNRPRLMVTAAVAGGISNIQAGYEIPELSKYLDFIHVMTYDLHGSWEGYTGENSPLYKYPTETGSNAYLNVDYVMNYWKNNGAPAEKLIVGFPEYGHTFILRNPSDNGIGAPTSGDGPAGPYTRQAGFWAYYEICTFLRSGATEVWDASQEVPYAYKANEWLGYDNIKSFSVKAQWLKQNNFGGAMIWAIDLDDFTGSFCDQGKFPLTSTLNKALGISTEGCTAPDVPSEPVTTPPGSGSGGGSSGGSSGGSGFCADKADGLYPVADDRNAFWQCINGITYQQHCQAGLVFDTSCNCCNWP

mouse AMCase E140A = target: T9, mouse AMCase E140A (mouse, UniProt Q91XA9 22-473); assay: ELISA; +++ = 2.50 to 3.99 OD at 62.5 ng/ml
T9 construct: Full length point mutant without chitinase activity; also called mAMCase E140A
T9 sequence (Q91XA9 22-473 E140A limits assumed): as the sequence (Q91XA9 22-473 D136A limits assumed) above, with A115D, E119A counted along it

[6] = target: B7; assay: ELISA: galectin immobilised on the plate, serial dilutions of biotin-labelled full length human AMCase, A450
Method: as §1

[7] = target: B1; assay: ELISA: galectin immobilised on the plate, serial dilutions of biotin-labelled C-terminally truncated human AMCase, A450
Method: as §1

[8] = target: T7, mouse acidic mammalian chitinase …; assay: ELISA (data not shown)
Ym1 = target: T10, Ym1 (mouse, UniProt O35744 22-398); assay: ELISA
T10 construct: Recombinant from HEK293; non-tagged versions also made; also called chitinase 3-like 3; ECF-L
T10 sequence (O35744 other isoform, or with tags, fused parts or gaps limits assumed): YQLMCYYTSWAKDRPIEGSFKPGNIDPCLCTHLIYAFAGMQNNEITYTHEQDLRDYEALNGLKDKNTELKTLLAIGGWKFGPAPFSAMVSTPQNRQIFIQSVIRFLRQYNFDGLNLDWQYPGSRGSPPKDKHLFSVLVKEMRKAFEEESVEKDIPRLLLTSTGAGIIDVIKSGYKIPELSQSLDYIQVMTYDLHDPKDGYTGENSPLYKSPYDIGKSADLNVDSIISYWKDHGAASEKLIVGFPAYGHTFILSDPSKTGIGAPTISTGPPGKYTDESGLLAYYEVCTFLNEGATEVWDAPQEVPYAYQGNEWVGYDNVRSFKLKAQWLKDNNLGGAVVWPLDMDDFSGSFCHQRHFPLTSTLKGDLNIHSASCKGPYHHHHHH

Ym2 = target: T11, Ym2 (mouse, UniProt Q91Z98 22-402); assay: ELISA
T11 construct: Recombinant from HEK293; non-tagged versions also made; also called chitinase 3-like 4
T11 sequence (Q91Z98 other isoform, or with tags, fused parts or gaps limits assumed): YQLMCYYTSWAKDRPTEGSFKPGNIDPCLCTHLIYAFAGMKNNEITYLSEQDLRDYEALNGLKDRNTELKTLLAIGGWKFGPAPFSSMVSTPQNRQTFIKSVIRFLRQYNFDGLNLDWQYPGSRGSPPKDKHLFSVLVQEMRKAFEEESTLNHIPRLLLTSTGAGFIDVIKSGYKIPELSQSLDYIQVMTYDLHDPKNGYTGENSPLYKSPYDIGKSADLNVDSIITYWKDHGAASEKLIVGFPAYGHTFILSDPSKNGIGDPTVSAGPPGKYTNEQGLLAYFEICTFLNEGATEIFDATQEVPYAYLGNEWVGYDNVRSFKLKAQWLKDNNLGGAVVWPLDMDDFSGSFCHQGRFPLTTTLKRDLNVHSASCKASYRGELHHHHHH

human galectin-3 = target: T12, human galectin-3 (human, UniProt P17931 2-250); assay: ELISA: galectin immobilised on the plate, serial dilutions of biotin-labelled AMCase, streptavidin-HRP, TMB, A450
T12 construct: also called gal-3; LGALS3
T12 sequence (P17931 2-250 limits assumed): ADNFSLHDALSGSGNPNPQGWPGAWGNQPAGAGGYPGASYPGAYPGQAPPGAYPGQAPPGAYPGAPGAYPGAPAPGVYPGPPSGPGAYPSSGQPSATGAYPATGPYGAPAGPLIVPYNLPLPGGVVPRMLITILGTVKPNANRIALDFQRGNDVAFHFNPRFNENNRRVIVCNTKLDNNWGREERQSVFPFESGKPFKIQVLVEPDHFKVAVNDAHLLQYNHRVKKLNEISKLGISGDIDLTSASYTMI
Method: as §1

With B1 the “EC50 (read off the curve)” value (human galectin-4) was ~0.1 µg/mL.

B2: binds [1].

B3: M5 (antibody, V domains shown)
VH: EVQLLESGGGLVQPGGSLRLSCAASGFTFSKYLMQWVRQAPGKGLEWVSSIVPSGGETVYADSVKGRFTISRDNSKNTLYLQMNSLRAEDTAVYYCARSGTYGASRYWGQGTLVTVSS
VL: DIQMTQSPLSLSVSVGQSASISCRSSHSLLYSDGNTYINWFHQRPGQSPRRLIHMVSKRDSGVPDRFSGSGSGTDFTLKISRAEAEDVGVYYCMQATYFPLTFGGGTRVEIK
notes: Fully human anti-AMCase antibody from a phage display library, converted to full length IgG
B3: no binding [2]; no binding (mouse chitotriosidase); no binding (mouse YKL-40/BRP-39). B3: no binding [3]; no binding [4]; no binding (human chitotriosidase). For the same binder, the binding result (human YKL-39) was “no binding”, the binding result (human YKL-40) was “no binding” and the “ELISA OD at 62.5 ng/ml antibody” value [5] was 2.5 to 3.99 od. The “ELISA OD at 62.5 ng/ml antibody” value (mouse AMCase D136A) was 2.5 to 3.99 od and the “ELISA OD at 62.5 ng/ml antibody” value (mouse AMCase E140A) was 2.5 to 3.99 od.

B4: galectin 2 (other, UniProt P05162 1-132, looked up)
chain: MTGELEVKNMDMKPGSTLKITGSIADGTDGFVINLGQGTDKLNLHFNPRFSESTIVCNSLDGSNWGQEQREDHLCFSPGSEVKFTVTFESDKFKVKLPDGHELTFPNRLGHSHLSYLSVRGGFNMSSFKLKE
B4: no binding (tested: 10 ug/ml) [6]; no binding (tested: 10 ug/ml) [7].

B5: mouse galectin-4 (other, UniProt Q8K419 1-326, looked up)
chain: MAYVPAPGYQPTYNPTLPYKRPIPGGLSVGMSVYIQGMAKENMRRFHVNFAVGQDDGADVAFHFNPRFDGWDKVVFNTMQSGQWGKEEKKKSMPFQKGKHFELVFMVMPEHYKVVVNGNSFYEYGHRLPVQMVTHLQVDGDLELQSINFLGGQPAAAPYPGAMTIPAYPAGSPGYNPPQMNTLPVMTGPPVFNPRVPYVGALQGGLTVRRTIIIKGYVLPTARNFVINFKVGSSGDIALHLNPRIGDSVVRNSFMNGSWGAEERKVAYNPFGPGQFFDLSIRCGMDRFKVFANGQHLFDFSHRFQAFQMVDTLEINGDITLSYVQI
notes: also called mGal-4
B5: binds [8].

B6: M1 (antibody, V domains shown)
VH: EVQLLESGGGLVQPGGSLRLSCAASGFTFSTYGMDWVRQAPGKGLEWVSYISPSGGYTMYADSVKGRFTISRDNSKNTLYLQMNSLRAEDTAVYYCARHSPRSAGANAFDIWGQGTMVTVSS
VL: DIQMTQSPATLSVSPGERATLSCRASQSVSSNLAWYQQKPGQAPRLLIYGASTRATGIPARFSGSGSGTEFTLTISSLQSEDFAVYYCQQYGSSLWTFGQGTKVEIK
notes: Fully human anti-AMCase antibody from phage display, converted to full length IgG
B6: no binding [2]; no binding (mouse chitotriosidase); no binding (Ym1). B6: no binding (Ym2); no binding (mouse YKL-40/BRP-39); no binding [3]. B6: no binding [4]; no binding (human chitotriosidase); no binding (human YKL-39). B6: no binding (human YKL-40).

In the case of B7, the “EC50 (read off the curve)” value (human galectin-3) is reported as ~0.06 µg/mL.

B8: galectin 8 (other, UniProt O00214 1-317, looked up)
chain: MMLSLNNLQNIIYNPVIPFVGTIPDQLDPGTLIVIRGHVPSDADRFQVDLQNGSSMKPRADVAFHFNPRFKRAGCIVCNTLINEKWGREEITYDTPFKREKSFEIVIMVLKDKFQVAVNGKHTLLYGHRIGPEKIDTLGIYGKVNIHSIGFSFSSDLQSTQASSLELTEISRENVPKSGTPQLRLPFAARLNTPMGPGRTVVVKGEVNANAKSFNVDLLAGKSKDIALHLNPRLNIKAFVRNSFLQESWGEEERNITSFPFSPGMYFEMIIYCDVREFKVAVNGVHSLEYKHRFKELSSIDTLEINGDIHLLEVRSW
notes: also called LGALS8
B8: no binding (tested: 10 ug/ml) [7].

B9: mouse galectin-3 (other, UniProt P16110 2-264, looked up)
chain: ADSFSLNDALAGSGNPNPQGYPGAWGNQPGAGGYPGAAYPGAYPGQAPPGAYPGQAPPGAYPGQAPPSAYPGPTAPGAYPGPTAPGAYPGQPAPGAFPGQPGAPGAYPQCSGGYPAAGPYGVPAGPLTVPYDLPLPGGVMPRMLITIMGTVKPNANRIVLDFRRGNDVAFHFNPRFNENNRRVIVCNTKQDNNWGKEERQSAFPFESGKPFKIQVLVEADHFKVAVNDAHLLQYNHRMKNLREISQLGISGDITLTSANHAMI
notes: also called mGal-3
B9: binds [8].

From patent US20070071746A1 (AstraZeneca / MedImmune, published 2007)
